Data taken from patent US20070271623A1 (UNIVERSITY OF COPENHAGEN, published 2007).

B1: MKS1 as bait (BD fusion), MKS1-BD (other)
chain: MKLLSSIEQACDICRLKKLKCSKEKPKCAKCLKNNWECRYSPKTKRSPLTRAHLTEVESRLERLEQLFLLIFPREDLDMILKMDSLQDIKALLTGLFVQDNVNKDAVTDRLASVETDMPLTLRQHRISATSSSEESSNKGQRQLTVSMDPSEYFAGGNPSDQQNQKRQLQICGPRPSPLSVHKDSHKIKKPPKHPAPPPNRDQPPPYIPREPVVIYAVSPKVVHATASEFMNVVQRLTGISSGVFLESGGGGDVSPAARLASTENASPRGGKEPAARDETVEINTAMEEAAEFGGYAPGILSPSPALLPTASTGIFSPMYHQGGMFSPAIPLGLFSPAGFMSPFRSPGFTSLVASPTFADFFSHIWDQD
notes: also called MKS1 bait; MAP Kinase Substrate 1

Columns and labels:
[1] = target: T1, MPK17 as prey (AD fusion) (UniProt Q84M93 1-486, limits assumed); test: directed yeast two-hybrid assay
T1 sequence (looked up): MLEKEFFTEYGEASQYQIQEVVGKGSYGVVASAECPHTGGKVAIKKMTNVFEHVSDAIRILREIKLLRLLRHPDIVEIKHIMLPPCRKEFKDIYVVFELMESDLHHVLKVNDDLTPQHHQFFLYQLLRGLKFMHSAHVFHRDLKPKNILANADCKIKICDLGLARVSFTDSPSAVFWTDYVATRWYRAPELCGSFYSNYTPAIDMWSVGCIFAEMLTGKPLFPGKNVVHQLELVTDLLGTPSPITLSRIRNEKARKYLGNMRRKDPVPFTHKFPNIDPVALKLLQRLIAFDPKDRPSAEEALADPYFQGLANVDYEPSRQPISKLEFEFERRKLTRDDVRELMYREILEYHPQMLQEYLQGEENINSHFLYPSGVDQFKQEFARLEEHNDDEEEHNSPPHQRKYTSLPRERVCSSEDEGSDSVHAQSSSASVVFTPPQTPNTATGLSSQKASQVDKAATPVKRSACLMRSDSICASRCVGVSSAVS
Procedure: (§1) Yeast cells in the two hybrid screen were selected on the indicated nutrient depleted growth-media (-Histidine; -Leucine; -Adenine-Tryptophan) and assayed for β-galactosidase (β-gal) reporter gene activity.
(§2) To test the specificity of the MAP kinase interaction, the interaction of MKS1 with other plant MAP kinases was tested in the yeast two-hybrid assay.
(§3) The specificity of MKS1 interaction with WRKY transcription factors was examined in directed yeast two-hybrid assays with WRKY26 and WRKY29.

MPK3 as prey (AD fusion) = target: T2, MPK3 as prey (AD fusion) (UniProt Q39023 1-370); test: directed yeast two-hybrid assay
T2 sequence (looked up): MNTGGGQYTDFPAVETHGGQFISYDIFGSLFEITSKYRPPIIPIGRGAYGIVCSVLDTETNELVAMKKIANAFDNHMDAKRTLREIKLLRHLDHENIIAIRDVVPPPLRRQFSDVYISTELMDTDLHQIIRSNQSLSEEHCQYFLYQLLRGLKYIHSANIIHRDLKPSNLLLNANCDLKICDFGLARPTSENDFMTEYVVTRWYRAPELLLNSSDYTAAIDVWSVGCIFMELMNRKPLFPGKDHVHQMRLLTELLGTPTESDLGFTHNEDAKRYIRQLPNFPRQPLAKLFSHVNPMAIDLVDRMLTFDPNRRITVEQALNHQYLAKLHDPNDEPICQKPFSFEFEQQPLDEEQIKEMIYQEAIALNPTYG
Procedure: as §1, §2, §3

MPK6 as prey (AD fusion) = MPK6 as prey (AD fusion) (UniProt Q39026 1-395); test: directed yeast two-hybrid assay
Procedure: as §1, §2, §3

MPK4 as prey (AD fusion) = target: T3, MPK4 as prey (AD fusion) (Arabidopsis thaliana, UniProt Q39024 1-376, limits assumed); test: yeast two-hybrid assay
T3 construct: Used in the directed two-hybrid assay with MKS1 as bait; also called MPK4 prey
T3 sequence (looked up): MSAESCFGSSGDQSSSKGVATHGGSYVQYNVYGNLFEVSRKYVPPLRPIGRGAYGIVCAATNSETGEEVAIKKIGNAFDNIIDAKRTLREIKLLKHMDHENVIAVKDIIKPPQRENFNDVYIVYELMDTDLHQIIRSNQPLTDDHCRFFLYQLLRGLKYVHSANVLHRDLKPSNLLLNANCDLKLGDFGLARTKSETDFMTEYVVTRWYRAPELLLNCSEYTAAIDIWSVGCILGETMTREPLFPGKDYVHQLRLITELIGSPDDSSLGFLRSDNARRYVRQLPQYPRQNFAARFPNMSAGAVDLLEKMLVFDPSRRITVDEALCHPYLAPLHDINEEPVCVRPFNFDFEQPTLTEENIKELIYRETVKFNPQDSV

[2] = target: B1; test: directed yeast two-hybrid assay
Procedure: as §1, §2, §3

[3] = target: T4, WRKY33 as prey (AD fusion) (Arabidopsis thaliana, UniProt Q8S8P5 332-519, limits assumed); test: yeast two-hybrid assay
T4 construct: The library hits were five different truncated WRKY33 proteins; also called W33; transcription factor WRKY33

MPK4 as bait (BD fusion) = target: T5, MPK4 as bait (BD fusion) (Arabidopsis thaliana, UniProt P04386 1-147; Q39024 1-376); test: directed yeast two-hybrid assay
T5 construct: also called MPK4 bait
Procedure: as §1, §2, §3

[4] = target: T6, histidine-tagged C1-MKS1 truncation (amino acids 1-196)
T6 chain: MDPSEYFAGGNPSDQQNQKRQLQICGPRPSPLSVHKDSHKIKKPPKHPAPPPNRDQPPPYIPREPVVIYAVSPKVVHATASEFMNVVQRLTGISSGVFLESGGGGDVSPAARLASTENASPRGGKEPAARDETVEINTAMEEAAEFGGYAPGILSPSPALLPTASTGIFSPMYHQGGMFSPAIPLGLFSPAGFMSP

[5] = target: T7, Pep22, synthetic peptide corresponding to amino acid residues 13-35 of MKS1
T7 chain: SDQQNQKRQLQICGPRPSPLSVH

[6] = target: T8, recombinant, full-length histidine-tagged MKS1
T8 chain: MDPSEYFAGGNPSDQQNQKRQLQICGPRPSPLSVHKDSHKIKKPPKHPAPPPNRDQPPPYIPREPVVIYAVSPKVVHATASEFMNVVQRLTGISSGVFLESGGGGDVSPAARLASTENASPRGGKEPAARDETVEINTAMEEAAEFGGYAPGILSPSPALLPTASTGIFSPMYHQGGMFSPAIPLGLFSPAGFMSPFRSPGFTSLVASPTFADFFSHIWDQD

Flg22 peptide = target: T9, Flg22 peptide
T9 chain: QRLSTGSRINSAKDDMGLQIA

[7] = target: T10, histidine-tagged C3-MKS1 truncation (amino acids 1-73)
T10 chain: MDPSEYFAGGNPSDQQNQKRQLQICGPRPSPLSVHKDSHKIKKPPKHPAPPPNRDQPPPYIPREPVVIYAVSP

[8] = target: T11, histidine-tagged C2-MKS1 truncation (amino acids 1-123)
T11 chain: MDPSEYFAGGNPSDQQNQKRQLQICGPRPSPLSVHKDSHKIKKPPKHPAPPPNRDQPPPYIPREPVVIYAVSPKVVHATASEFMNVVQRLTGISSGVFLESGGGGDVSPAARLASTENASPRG

T4 sequence (Q8S8P5 332-519 limits assumed): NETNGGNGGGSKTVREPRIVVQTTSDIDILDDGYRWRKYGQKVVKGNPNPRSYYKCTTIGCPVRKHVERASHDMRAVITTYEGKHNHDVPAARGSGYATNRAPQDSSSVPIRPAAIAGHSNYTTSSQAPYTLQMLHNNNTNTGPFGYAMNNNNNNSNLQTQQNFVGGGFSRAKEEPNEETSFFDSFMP
Chain of MPK6 as prey (AD fusion) (Q39026 whole entry, the tested form may be a part): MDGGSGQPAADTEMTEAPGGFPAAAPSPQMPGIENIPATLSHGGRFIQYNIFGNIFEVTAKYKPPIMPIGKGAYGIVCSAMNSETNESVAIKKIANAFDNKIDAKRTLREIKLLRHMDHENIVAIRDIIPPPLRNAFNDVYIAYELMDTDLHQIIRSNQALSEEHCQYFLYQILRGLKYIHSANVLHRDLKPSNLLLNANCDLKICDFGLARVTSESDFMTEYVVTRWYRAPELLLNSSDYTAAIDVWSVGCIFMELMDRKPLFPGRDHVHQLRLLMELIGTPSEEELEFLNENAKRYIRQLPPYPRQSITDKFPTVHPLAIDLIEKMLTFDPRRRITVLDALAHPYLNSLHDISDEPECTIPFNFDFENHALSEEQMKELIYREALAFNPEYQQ

Binder: B1
- binding result [1]: no binding
- binding result (MPK3 as prey (AD fusion)): no binding
- binding result (MPK6 as prey (AD fusion)): no binding

B2: C1-MKS1 truncation (amino acids 1-196), two-hybrid construct (other, not shown: large carriers)
chain: MDPSEYFAGGNPSDQQNQKRQLQICGPRPSPLSVHKDSHKIKKPPKHPAPPPNRDQPPPYIPREPVVIYAVSPKVVHATASEFMNVVQRLTGISSGVFLESGGGGDVSPAARLASTENASPRGGKEPAARDETVEINTAMEEAAEFGGYAPGILSPSPALLPTASTGIFSPMYHQGGMFSPAIPLGLFSPAGFMSP
- binding result (MPK4 as prey (AD fusion)): binds

B3: WRKY29 as prey (AD fusion) (other, UniProt Q9SUS1 1-304, looked up, not shown: large carriers)
chain: MDEGDLEAIVRGYSGSGDAFSGESSGTFSPSFCLPMETSSFYEPEMETSGLDELGELYKPFYPFSTQTILTSSVSLPEDSKPFRDDKKQRSHGCLLSNGSRADHIRISESKSKKSKKNQQKRVVEQVKEENLLSDAWAWRKYGQKPIKGSPYPRSYYRCSSSKGCLARKQVERNPQNPEKFTITYTNEHNHELPTRRNSLAGSTRAKTSQPKPTLTKKSEKEVVSSPTSNPMIPSADESSVAVQEMSVAETSTHQAAGAIEGRRLSNGLPSDLMSGSGTFPSFTGDFDELLNSQEFFSGYLWNY
notes: mature
- binding result [2]: no binding

B4: MPK5 as prey (AD fusion) (other, UniProt Q39025 127-376, looked up, not shown: large carriers)
chain: MDTDLHQIIRSNQSLNDDHCQYFLYQILRGLKYIHSANVLHRDLKPSNLLLNSNCDLKITDFGLARTTSETEYMTEYVVTRWYRAPELLLNSSEYTSAIDVWSVGCIFAEIMTREPLFPGKDYVHQLKLITELIGSPDGASLEFLRSANARKYVKELPKFPRQNFSARFPSMNSTAIDLLEKMLVFDPVKRITVEEALCYPYLSALHDLNDEPVCSNHFSFHFEDPSSTEEEIKELVWLESVKFNPLPSI
- binding result [2]: no binding

B5: C2-MKS1 truncation (amino acids 1-123), two-hybrid construct (other, not shown: large carriers)
chain: MDPSEYFAGGNPSDQQNQKRQLQICGPRPSPLSVHKDSHKIKKPPKHPAPPPNRDQPPPYIPREPVVIYAVSPKVVHATASEFMNVVQRLTGISSGVFLESGGGGDVSPAARLASTENASPRG
- binding result (MPK4 as prey (AD fusion)): binds

B6: N1-MKS1, N-terminal truncated form (amino acids 55-222), two-hybrid construct (other)
chain: DQPPPYIPREPVVIYAVSPKVVHATASEFMNVVQRLTGISSGVFLESGGGGDVSPAARLASTENASPRGGKEPAARDETVEINTAMEEAAEFGGYAPGILSPSPALLPTASTGIFSPMYHQGGMFSPAIPLGLFSPAGFMSPFRSPGFTSLVASPTFADFFSHIWDQD
notes: also called N-terminally deleted MKS1; not shown: GAL4 BD or AD fusion partner
- binding result (MPK4 as prey (AD fusion)): no binding

B7: C3-MKS1 truncation (amino acids 1-73), two-hybrid construct (other, not shown: large carriers)
chain: MDPSEYFAGGNPSDQQNQKRQLQICGPRPSPLSVHKDSHKIKKPPKHPAPPPNRDQPPPYIPREPVVIYAVSP
- binding result [3]: no binding
- binding result (MPK4 as prey (AD fusion)): binds

B8: WRKY25 as prey (AD fusion) (other, Arabidopsis thaliana, UniProt O22921 1-393, looked up, not shown: large carriers)
chain: MSSTSFTDLLGSSGVDCYEDDEDLRVSGSSFGGYYPERTGSGLPKFKTAQPPPLPISQSSHNFTFSDYLDSPLLLSSSHSLISPTTGTFPLQGFNGTTNNHSDFPWQLQSQPSNASSALQETYGVQDHEKKQEMIPNEIATQNNNQSFGTERQIKIPAYMVSRNSNDGYGWRKYGQKQVKKSENPRSYFKCTYPDCVSKKIVETASDGQITEIIYKGGHNHPKPEFTKRPSQSSLPSSVNGRRLFNPASVVSEPHDQSENSSISFDYSDLEQKSFKSEYGEIDEEEEQPEMKRMKREGEDEGMSIEVSKGVKEPRVVVQTISDIDVLIDGFRWRKYGQKVVKGNTNPRSYYKCTFQGCGVKKQVERSAADERAVLTTYEGRHNHDIPTALRRS
notes: Library clone; also called transcription factor WRKY25
- binding result (MPK4 as bait (BD fusion)): no binding

B9: HA (influenza hemagglutin antigen)-tagged MPK4 (protein)
chain: YPYDVPDYAYPYDVPDYAYPYDVPDYAYPYDVPDYAYPYDVPDYAYPYDVPDYAMSAESCFGSSGDQSSSKGVATHGGSYVQYNVYGNLFEVSRKYVPPLRPIGRGAYGIVCAATNSETGEEVAIKKIGNAFDNIIDAKRTLREIKLLKHMDHENVIAVKDIIKPPQRENFNDVYIVYELMDTDLHQIIRSNQPLTDDHCRFFLYQLLRGLKYVHSANVLHRDLKPSNLLLNANCDLKLGDFGLARTKSETDFMTEYVVTRWYRAPELLLNCSEYTAAIDIWSVGCILGETMTREPLFPGKDYVHQLRLITELIGSPDDSSLGFLRSDNARRYVRQLPQYPRQNFAARFPNMSAGAVDLLEKMLVFDPSRRITVDEALCHPYLAPLHDINEEPVCVRPFNFDFEQPTLTEENIKELIYRETVKFNPQDSV
- in vitro phosphorylation assay (32P-γ-ATP, SDS-PAGE, phosphorimager) [4]: HA-tagged MPK4 readily phosphorylated both full-length and C-terminal MKS1 truncations, including C3 MKS1
- competition of MKS1 phosphorylation by MPK4 in vitro [5]: Pep22 is an efficient competitor of full-length MKS1 for phosphorylation by MPK4, when added to the in vitro assay in a molar ratio of 1:1 (Pep22:MKS1)
- in vitro phosphorylation assay (32P-γ-ATP, SDS-PAGE, phosphorimager) [6]: HA-tagged MPK4, immunoprecipitated from Arabidopsis plants, is shown to in vitro phosphorylate MKS1 as efficiently as myelin basic protein
- competition of MKS1 phosphorylation by MPK4 in vitro (Flg22 peptide): the FIG. 22 peptide did not compete MKS1 phosphorylation
- in vitro phosphorylation assay (32P-γ-ATP, SDS-PAGE, phosphorimager) [7]: HA-tagged MPK4 readily phosphorylated both full-length and C-terminal MKS1 truncations, including C3 MKS1
- in vitro phosphorylation assay (32P-γ-ATP, SDS-PAGE, phosphorimager) [8]: HA-tagged MPK4 readily phosphorylated both full-length and C-terminal MKS1 truncations, including C3 MKS1
